The values below come from patent US8586570B2, “Sox-based kinase sensor” (Massachusetts Institute of Technology, priority 2006, dated 2013).

Test in all cases: Cross-reactivity of PKCα-S10 with PKC isozymes
What all share (format): biochemical
Settings in all cases: peptide 1 μM, isozyme 2 ng

The target of one assay is PKCβI (Homo sapiens, UniProt P05771). The protocol:
(§1) With the kinetic parameters at hand it is possible to test the cross-reactivity of PKCα-S10 with PKC isozymes. In 12 separate reactions PKCα-S10 (1 μM) is subjected to phosphorylation with PKCα, PKCβI, PKCβII, PKCγ, PKCδ, PKCε, PKCζ, PKCη, PKCθ, PKCι, PKCμ and PKCν (2 ng).

A further assay deals with PKCβII (Homo sapiens, UniProt P05771). On the procedure:
as §1

The next assay addresses T1, PKCζ (Homo sapiens, UniProt Q05513).
T1 sequence (Q05513 1-592): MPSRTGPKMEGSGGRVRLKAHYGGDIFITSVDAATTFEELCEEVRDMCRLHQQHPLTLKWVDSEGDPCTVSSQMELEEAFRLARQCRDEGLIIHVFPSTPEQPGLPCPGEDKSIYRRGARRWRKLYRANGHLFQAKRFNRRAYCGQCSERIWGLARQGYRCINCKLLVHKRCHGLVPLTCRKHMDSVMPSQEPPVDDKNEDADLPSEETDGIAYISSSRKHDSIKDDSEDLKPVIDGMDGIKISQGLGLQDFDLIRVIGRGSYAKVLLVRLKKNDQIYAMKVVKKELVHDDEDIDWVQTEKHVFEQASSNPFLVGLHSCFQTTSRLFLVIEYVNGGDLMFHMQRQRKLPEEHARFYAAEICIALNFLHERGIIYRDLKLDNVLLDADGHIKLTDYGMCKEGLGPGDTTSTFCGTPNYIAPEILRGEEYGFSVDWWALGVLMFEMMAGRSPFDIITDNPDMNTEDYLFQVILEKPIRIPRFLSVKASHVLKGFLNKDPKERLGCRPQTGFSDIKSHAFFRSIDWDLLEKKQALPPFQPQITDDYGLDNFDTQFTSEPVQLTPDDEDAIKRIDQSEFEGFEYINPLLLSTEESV
The protocol:
as §1

Another assay deals with PKCη (Homo sapiens, UniProt P24723). On the procedure: as §1
A further assay addresses T2, PKCμ (Homo sapiens, UniProt Q15139).
T2 sequence (Q15139 1-912): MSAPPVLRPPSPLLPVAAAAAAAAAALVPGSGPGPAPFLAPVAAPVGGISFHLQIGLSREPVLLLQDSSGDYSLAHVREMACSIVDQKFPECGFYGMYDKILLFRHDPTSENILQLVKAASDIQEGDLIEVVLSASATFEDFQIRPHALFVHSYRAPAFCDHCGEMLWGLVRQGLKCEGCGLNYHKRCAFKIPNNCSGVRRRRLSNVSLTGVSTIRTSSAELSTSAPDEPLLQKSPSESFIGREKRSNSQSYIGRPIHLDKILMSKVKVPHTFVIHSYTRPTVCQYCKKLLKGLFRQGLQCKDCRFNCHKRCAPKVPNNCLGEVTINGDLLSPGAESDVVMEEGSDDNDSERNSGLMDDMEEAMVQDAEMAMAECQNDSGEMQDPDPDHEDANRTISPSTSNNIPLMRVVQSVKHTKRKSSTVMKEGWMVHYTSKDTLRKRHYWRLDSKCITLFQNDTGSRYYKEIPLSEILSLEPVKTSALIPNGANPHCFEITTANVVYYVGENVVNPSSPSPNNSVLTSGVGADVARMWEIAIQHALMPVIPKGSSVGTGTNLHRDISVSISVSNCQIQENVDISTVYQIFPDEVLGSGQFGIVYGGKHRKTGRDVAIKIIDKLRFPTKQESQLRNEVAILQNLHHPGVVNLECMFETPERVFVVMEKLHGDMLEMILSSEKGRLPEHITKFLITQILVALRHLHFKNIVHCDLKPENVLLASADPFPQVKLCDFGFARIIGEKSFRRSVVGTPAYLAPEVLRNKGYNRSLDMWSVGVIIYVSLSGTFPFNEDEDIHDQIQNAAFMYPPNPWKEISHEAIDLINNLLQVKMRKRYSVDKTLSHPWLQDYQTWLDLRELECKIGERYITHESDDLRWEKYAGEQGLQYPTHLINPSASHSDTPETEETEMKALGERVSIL
On the procedure:
as §1

A further assay addresses T3, PKCν (Homo sapiens, UniProt O94806).
T3 sequence (O94806 1-890): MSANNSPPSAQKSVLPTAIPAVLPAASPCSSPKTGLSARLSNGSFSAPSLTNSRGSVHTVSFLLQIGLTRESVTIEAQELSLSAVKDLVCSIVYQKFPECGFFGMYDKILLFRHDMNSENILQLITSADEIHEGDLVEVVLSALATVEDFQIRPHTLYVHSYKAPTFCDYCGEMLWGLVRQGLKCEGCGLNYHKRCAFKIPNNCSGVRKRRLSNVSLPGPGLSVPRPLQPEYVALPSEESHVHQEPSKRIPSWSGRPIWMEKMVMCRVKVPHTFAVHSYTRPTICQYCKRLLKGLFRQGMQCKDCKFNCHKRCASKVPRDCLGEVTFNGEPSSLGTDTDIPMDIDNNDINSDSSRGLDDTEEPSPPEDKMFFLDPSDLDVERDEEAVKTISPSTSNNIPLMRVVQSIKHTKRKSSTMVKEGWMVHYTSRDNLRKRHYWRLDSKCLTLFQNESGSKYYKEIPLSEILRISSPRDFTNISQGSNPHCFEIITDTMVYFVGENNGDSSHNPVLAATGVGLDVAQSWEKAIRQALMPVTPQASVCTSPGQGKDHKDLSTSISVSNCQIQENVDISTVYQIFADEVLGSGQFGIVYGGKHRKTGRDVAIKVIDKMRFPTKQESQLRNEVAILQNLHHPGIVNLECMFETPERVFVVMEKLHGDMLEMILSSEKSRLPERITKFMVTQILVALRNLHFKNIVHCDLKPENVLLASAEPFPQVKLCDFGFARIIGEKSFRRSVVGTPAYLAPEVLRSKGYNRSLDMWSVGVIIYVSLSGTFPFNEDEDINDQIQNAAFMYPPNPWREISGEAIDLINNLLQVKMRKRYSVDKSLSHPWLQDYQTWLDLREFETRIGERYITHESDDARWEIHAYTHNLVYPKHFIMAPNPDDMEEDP
On the procedure:
as §1

Sequence of PKCη (P24723 whole entry): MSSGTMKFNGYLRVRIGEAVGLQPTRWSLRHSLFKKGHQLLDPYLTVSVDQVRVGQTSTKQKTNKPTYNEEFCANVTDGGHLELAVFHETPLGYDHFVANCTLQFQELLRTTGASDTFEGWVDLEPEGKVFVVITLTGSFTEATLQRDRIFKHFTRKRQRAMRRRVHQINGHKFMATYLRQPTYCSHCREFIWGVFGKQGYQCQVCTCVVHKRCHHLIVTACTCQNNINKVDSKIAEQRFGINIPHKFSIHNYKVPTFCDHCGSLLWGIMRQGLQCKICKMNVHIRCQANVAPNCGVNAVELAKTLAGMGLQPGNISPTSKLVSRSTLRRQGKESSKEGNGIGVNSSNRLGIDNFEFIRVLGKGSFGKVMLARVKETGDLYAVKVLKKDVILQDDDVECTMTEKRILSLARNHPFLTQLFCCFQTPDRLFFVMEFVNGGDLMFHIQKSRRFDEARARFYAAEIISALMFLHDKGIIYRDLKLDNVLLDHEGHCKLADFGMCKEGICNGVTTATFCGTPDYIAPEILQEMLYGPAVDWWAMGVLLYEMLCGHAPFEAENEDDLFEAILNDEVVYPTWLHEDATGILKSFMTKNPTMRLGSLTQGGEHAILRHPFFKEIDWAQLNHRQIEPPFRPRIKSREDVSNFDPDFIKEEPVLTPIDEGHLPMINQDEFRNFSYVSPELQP
Sequence of PKCβII (P05771 1-673 isoform P05771-2): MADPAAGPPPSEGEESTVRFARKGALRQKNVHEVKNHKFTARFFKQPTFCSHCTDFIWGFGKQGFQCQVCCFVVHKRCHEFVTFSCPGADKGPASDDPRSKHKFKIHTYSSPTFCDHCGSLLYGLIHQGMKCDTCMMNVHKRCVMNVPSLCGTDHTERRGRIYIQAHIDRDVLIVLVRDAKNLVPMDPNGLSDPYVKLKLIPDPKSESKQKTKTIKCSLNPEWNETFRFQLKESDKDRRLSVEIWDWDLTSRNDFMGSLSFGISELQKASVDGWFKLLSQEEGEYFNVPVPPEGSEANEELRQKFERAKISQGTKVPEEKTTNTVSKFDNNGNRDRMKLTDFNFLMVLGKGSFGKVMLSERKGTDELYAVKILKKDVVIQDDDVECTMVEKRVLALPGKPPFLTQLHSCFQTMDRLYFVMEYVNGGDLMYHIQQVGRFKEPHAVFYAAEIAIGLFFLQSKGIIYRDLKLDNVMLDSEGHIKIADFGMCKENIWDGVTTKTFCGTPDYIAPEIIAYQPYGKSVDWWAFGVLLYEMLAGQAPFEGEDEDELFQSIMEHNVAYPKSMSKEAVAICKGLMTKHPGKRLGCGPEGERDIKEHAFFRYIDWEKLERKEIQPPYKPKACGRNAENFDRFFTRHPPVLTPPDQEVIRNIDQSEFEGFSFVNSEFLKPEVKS
Sequence of PKCβI (P05771 whole entry): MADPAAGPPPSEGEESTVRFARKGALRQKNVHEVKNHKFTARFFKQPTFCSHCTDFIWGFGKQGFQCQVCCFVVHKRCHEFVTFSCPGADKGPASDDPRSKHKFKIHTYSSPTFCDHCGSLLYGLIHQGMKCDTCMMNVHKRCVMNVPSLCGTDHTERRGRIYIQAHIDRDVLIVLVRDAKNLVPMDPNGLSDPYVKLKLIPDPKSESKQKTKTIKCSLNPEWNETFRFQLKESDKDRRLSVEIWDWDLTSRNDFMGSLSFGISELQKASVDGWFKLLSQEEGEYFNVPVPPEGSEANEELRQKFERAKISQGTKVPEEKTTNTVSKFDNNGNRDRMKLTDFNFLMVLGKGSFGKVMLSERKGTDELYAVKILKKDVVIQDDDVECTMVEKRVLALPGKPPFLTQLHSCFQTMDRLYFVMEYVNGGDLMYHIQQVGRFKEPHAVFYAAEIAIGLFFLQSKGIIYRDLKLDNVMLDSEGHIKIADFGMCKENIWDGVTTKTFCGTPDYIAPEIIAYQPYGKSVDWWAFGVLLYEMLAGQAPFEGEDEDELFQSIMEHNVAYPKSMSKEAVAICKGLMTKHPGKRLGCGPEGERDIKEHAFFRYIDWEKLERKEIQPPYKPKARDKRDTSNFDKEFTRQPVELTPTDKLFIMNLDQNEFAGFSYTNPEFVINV

In the case of “Ac-RRR-C(Sox)-ASFRRKA-CONH2 [PKCα-S10(P10), Sox chemosensor with extended recognition domain for PKCα]”, the “activity of isozyme on peptide compared with PKCα” value in the assay with PKCβI is listed as “slightly more active than PKCα”; with PKCβII, “comparable activities to that of PKCα”. For the same substance, the “activity of isozyme on peptide” value with PKCζ is “very little activity”; with PKCη it was “very little activity”; in the assay with PKCμ, “no activity”; with PKCν it was “no activity”.
